According to the DeepSol protein solubility set:

Experiment: soluble on expression in E. coli; label from the status in PepcDB or PDB records

Sequence | soluble on expression in E. coli
MSLSAQGSQDGRFAGQLALVTGASRGIGAATAKALAAQGAHVVLVARTAKELEKVEEEIFEAGGSATIAPVDLSEPEGIARLATAISGRWSALDVLVINAAAFPTLTPVWQIDSREFNNALTLNVLATQALLAGFDGMLKKSKDARVIGVTSSVGATPRAYWGAYGASKAAFDVLLDCYAQEVRNTSAVRVAILDPGATRTKMRARAYPGENPESVKAPEVVAERMVALLGEQFSSPHRERVNQDEGHHHHHH | soluble
MSIVMQLQDVAESTRLGPLSGEVRAGEILHLVGPNGAGKSTLLARMAGMTSGKGSIQFAGQPLEAWSATKLALHRAYLSQQQTPPFATPVWHYLTLHQHDKTRTELLNDVAGALALDDKLGRSTNQLSGGEWQRVRLAAVVLQITPQANPAGQLLLLDEPMNSLDVAQQSALDKILSALSQQGLAIVMSSHDLNHTLRHAHRAWLLKGGKMLASGRREEVLTPPNLAQAYGMNFRRLDIEGHRMLISTI | soluble
TSKKKRQRGSRTHGGGSHKNRRGAGHRGGRGDAGRDKHEFHNHEPLGKSGFKRPQKVQEEAATIDVREIDENVTLLAADDVAEVEDGGFRVDVRDVVEEADDADYVKVLGAGQVRHELTLIADDFSEGAREKVEGAGGSVELTDLGEERQAEAEETEDADADEE | soluble
MNELVDTTEMYLRTIYDLEEEGVTPLRARIAERLDQSGPTVSQTVSRMERDGLLRVAGDRHLELTEKGRALAIAVMRKHRLAERLLVDVIGLPWEEVHAEACRWEHVMSEDVERRLVKVLNNPTTSPFGNPIPGLDELGVGPEPGADDANLVRLTELPAGSPVAVVVRQLTEHVQGDIDLITRLKDAGVVPNARVTVETTPGGGVTIVIPGHENVTLPHEMAHAVKVEKV | soluble
MNNLSVNGSSNGLFAKPTIGRSEYGRVKVALAPGKGFMDWLRLTTNKHLAKRVSGGVDHVELMKHNTKDDCWVHLFGIVYDVTKYLDFHPGGIPELLRGAGRDATPLFNQYHAWVNYESMLKACVVGPFIGDLTKLPSPLPPTTSDDKNKLGVPSSALFSTDPSENGYGARVETLSDNSGISFEHDDWTELTEHNTSINTRGEENTEEHARLRVLIHHFWKPAMEFEFEPTPALCHVEYTLKIMKNRVEIRFSREISGGKIDRSKCKIQRRPGVTYHTTEIIDRYRLNHDTLIFSLQLPEHTTYRIPIGHHVSIKIRKGSMGKFSWKFFLIFGYSVLYRPYTPISNPDPQKIDFMIKIYSNGICTPSLENLKIGGELEISDPIGERNFAEWTENAQELILLAAGSGITPMIDIMEKRIQKTENSNSKVYFLMFNKTENDLQTGKPEENPKSTWKMADFYSKYRGDERIVMKNVLSASECPVETGEYFNGRVSTDLLNSIISTSSTASRRAFICGPDGFILAAKTALESLNLHSDQIHIFQG | not soluble
MGSDKIHHHHHHMGNVASSEVINQLEAWYQAIKRLQLAEATTIKHEVMQAIDGMDQDRKVFLYYHLIDSRYHLLIHQWDYAGAILKGLKAQVELKETDKLLRYYYYFFSGLYEFHTKQYIEAIHFYRLAESLLKDIPDDIEQAEFNYQLAVAYYEIDQHFVSMDHAEKALELYLQNDQYKNRVATTQMIVAANQLDLYQFASAEALYKNAIELASDVQDFFVKGMGYYNLGVCYDRQDKLDLARECFESALYVDLPKSQYQGVMVGTKYMLARVLFKQGILEEGMHWFEEAKALADEMKDASYQAKLSTIHSIYKERDEVEIDDGLRVLKEGKLWSDVFELAINAARHFQEKEDYSLAAKYFDEGLVAKDQIKAWKEDTAST | not soluble
MSQKRSLVFAIRDFPPGCGTHIDVSSSLNHPAEKAFKHPRTGDVSGENLSFAEAKPEGTCLKRESADQDHIFAAPEHNAKREPAGQDHVVAATTVAYATSSHRQKVEIGNSDCDPTPREKVLEVLSLFKQVYNQLDRDKKARRGGDFLDATSRIDLKTLTVLEKMGKQVNTEKRIGSVPGINIGDVFQYKTELRVVGLHSKPMCGIDYIKLGDDRITTSIVASEGYGYNDTYNSGVMVYTGEGGNVINKQKKTEDQKLVKGNLALATSMRQKSQVRVIRGEERLDRKGKRYVYDGLYMVEEYWVERDVRGKSVYKFKLCRIPGQLPLT | not soluble
VRWIGLSTGLVSAMLVAGLVACGSNSPASSPAGPTQGARSIVVFAAASLQSAFTQIGEQFKAGNPGVNVNFAFAGSSELATQLTQGATADVFASADTAQMDSVAKAGLLAGHPTNFATNTMVIVAAAGNPKKIRSFADLTRPGLNVVVCQPSVPCGSATRRIEDATGIHLNPVSEELSVTDVLNKVITGQADAGLVYVSDALSVATKVTCVRFPEAAGVVNVYAIAVLKRTSQPALARQFVAMVTAAAGRRILDQSGFAKP | not soluble
MSLTTLKCVMQWTWRKTPERTIEVHKKNVNALKLLLIGSPGREQSYTPRDKRSNMHFLKKLGDFQDLEHTVDALKDWHTREKADAVLGLGDMLGLPGATTVRDERFQKKWHDIFIKDAGLDIPWLMTLGDADSVLSPSSQIRYHYSVQQKNWHMPNDYYTVNFKFGANLTLANGMFEETAFNATVIAINTWDLFVGNPVANNMASWTNKLWWLSEQLYQATQKNSSWIIVMGHHPMLSTGTEGEQARLQNIDDLSKSRRSRGLESFLINTLFMHYQVDAYVSGHDHLMEYNSITDVDRNVTVEGHHHHHH | not soluble
GSHMLEDPQRRIRRPFSVAEVEALVQAVEKLGTGRWRDVKLCAFEDADHRTYVDLKDKWKTLVHTAKISPQQRRGEPVPQELLNRVLNAHGYWTQQQMQQLQQNV | soluble
MARRNYQVERNKLEEKDPTWLMQKGQIQPLVSSLVVLNVEGERILARYTAKELFPTFDVEKKFEADLLKKSQTIPDLEENTGVFEHGQHIVVCRASEDLLFFVTSRIYENEVILSEVLTCWVDSLVKVLKNLPLNELNLLQHYEVLLLLVDELVDQEGVIMETDANELSSRTEFAMYSTDPRDLIPELTEQGFSHALQTAKQHLARTILK | not soluble
MAATSSTSSQSFDIELDIIGQQPPLLSIYTQISLVYPVSDPSQYPTIVSTLEEGLKRLSQTFPWVAGQVKTEGISEGNTGTSKIIPYEETPRLVVKDLRDDSSAPTIEGLRKAGFPLEMFDENVVAPRKTLAIGPGNGPNDPKPVLLLQLNFIKGGLILTVNGQHGAMDMTGQDAIIRLLSKACRNESFTEEEISAMNLDRKTVVPLLENYKVGPELDHQIAKPAPAGDAPPAPAKATWAFFSFTPKALSELKDAATKTLDASSKFVSTDDALSAFIWQSTSRVRLARLDASTPTEFCRAVDMRGPMGVSSTYPGLLQNMTYHDSTVAEIANEPLGATASRLRSELNSDRLRRRTQALATYMHGLPDKSSVSLTADANPSSSIMLSSWAKVGCWEYDFGFGLGKPESVRRPRFEPFESLMYFMPKKPDGEFTASISLRDEDMERLKADEEWTKYAKYIG | soluble
MQYDYLEALVKDLSLYKIKTEINMKNLRIWQTLSLWLVLLVTSLPLSAQTALLEKLGKIADITGTQPLESTEFVEKYVAYFTQPLDHRHPEKGSFSQRVIVSHVGFDRPTVMVTEGYGASYALGANYREELSKLFNTNMIFVEYRYFLESTPTPKDWQYLTAENSAEDLHAVREAFRSIYPGKWIATGISKGGQTAMLYRTFFPEDVDISVPYVAPLCYGVEDGRHEPFLKMVSTPEARKKIEDFQLEVLKRKPTLLPRFEKYCAGKKYKFRAPVEEIYDYSVLEYSFSIWQWGTPVDQIPAVTASDDELFKHLLAISEPSYFEEEGANTSFFVQAARELGYYGYDIRPFKKYLTIKTSKDYLKRLMLPEELGDMKFDKTLSRKIIHFLKNNDPKMIFIYGQNDPWTAAGVTWLKGKKNIHVFVEPNGSHLARIGTLPQKEKEEAIGLIKKWLEE | not soluble
MSRLEAWAYLSRVFEGPSRSLQKLLETESDVEKIAWGIKKREAWLGPILFETASRYSVSLEQEDLTTIKNLGGRLVTPDDDEWPREKFETAFGFAASGTSSLVRSYQSDAVAPHALWVRGAPLSTTVDRSVAIVGTRAMSHYGKSATSMLAAGIADHHWTIVSGGALGVDTVAHTEALQRQKPTVAVCARGLDAPYPRKNAELLRSIVETGCLVSEYAPGLTPHRHRFLTRNRLVAALSQGTVVVEAAWRSGALNTLSWASALGRVAMAVPGPVTNTGSLGCHERIRNKEAELVCSAEEILALVGTLGEFDPNGQYELQFAADPIQSLSRNEMRVFDSLDANPHTTDTVAAAAGIPIGLCVHILRDLEKKQLVMREGAHWHRC | not soluble
MGSDKIHHHHHHVEYPLPAKNSNLVGENQYYVVPEGKLTLEAIATKFQLGLTNLLEANPGVDPFLPKPGSTLVIPHQLILPNAPREGIVINVAEMRLYYYPKGKNIVEVLPIGIGQIGKDTPEKWVTTVQRKRANPTWTPTPRIRKEYLAKGEVLPAVWPAGPDNPMGLFALYIGNLYAIHGTNATFGIGLRISQGCIRLRDADIEHLFNSVPEGTRVEFTNQPIKASEEPDGNRYLEVHQPLSRTMAEYESAEPVGLSMHRDIAKFVAHADTDSFVLKRLLEQRNGIPTRINQ | not soluble
MGSDKIHHHHHHMDTIAESIQKKAYELGYEKCGIIPINLIDEYADKFNERMEKIPKSKMFYKSQERLIKPKEIYPWAKSVVVLTSVYGKYKVPQELNGHIAKAYLFDTRVDKNTKEYQNNRALEEYMQELGLKVETNQKFGVVGMRWAALQAGVGIIRRNNFLYTESGSWVHLEAWVTDRKMELKETNNVKKCPKSCNRCIMSCPTKSLSEPYTMSPTECVSFLTTFGGRNLPEEPLRKKFGDCIYGCDICQDACPMNKGKWKDEEEFPGLAELAPSLTPENILNMDEDFYREKVQPKFFYLSPEDLWKWKIDALCYIGNNYSESYKPLLVNACNNANNKISEMANLICSELSLQ | not soluble
MGSDKIHHHHHHMNTRSDVSKLIAQRKPRHALPRALYSNLAVYQQDLQQLWHKDWIFAGHTFELEKSGQYLSLQIGDYPVAVVRGADGQVRAFHNSCRHRGSKVCPEAKGKVAKLVCPYHKWTFELDGRLLFAGNMGDDFDKSQYNLKPVHCEIVNTYIYVCVAEAAPDFSAFREAVTPFLMPHNLEDCKVAFESNLIEKGNWKLVFENNRECYHCDGTHPELMNSFVENLSVAGVGGSDDPQLTAHWDRCEAAGLPSRLVMDNDGRFRITRIPLSSGAVSYTMDGKPAVAVRLDASGEADIGALLYFNYPSTWNHFLGDHALSFRVLPLGPNETLVTTKWIVKKTAVEGLDYDLDRLTKVWLATNDQDRTLVEGAQVGVNSPAYEPGPFSSKAENGVCQFDDWYCEIMLDRLGDDRAQASIKLKSVG | not soluble
AHHHHHHGSDWKGRDVISIRDFSKEDIEIVLSTAERLEKELKEKGQLEYARGKILATLFFEPSTRTRLSFESAMHRLGGAVIGFAEASTSSVKKGESLADTIKTVEQYSDVIVIRHPKEGAARLAAEVAEIPVINAGDGSNQHPTQTLLDLYTIRKEFGKIDGLKIGLLGDLKYGRTVHSLAEALAYYDVELYLISPELLRMPRHIVEELREKGVTVYETSDLMSVIGELDVLYVTRIQKERFPDEQEYLKVRGSYQVNLQVLSKAKETLKVMHPLPRVDEIHPEVDKTKHAIYFKQVFNGIPVRMALLGLVLGVI | soluble
MTVQVFHTLFLTNDCGDHVVLINTREIALPGDEWVKRVYFHHTGYPGGASWTLAWQLHEKDPTMVMKKAVYNSMRGNLQRRHTMQRLHLFADDQVPEEILQNVTNQIRTPRSIPQRLDHIDKETLENFPNIMDYPKDYILRLEHHHHHH | not soluble
MSLTKPFDVTLTREIIKIESVYAKMIENENILYLRVTNFDKNVVDVASKELKKYPNVKGVILDLRNNPGGLLNQAIGLVNLFVDKGVIVSQKGRIASENQEYKADPKNKISNASLVVLVNGGSASASEIVSGALQDLKRGVIVGENTFGKGSVQQIIPINKTEALRLTIARYYLPSGRTIQAVGVKPDIEVFPGKVNTQEDGFSIKESDLKQHLESELEKIDKNKKEDKQENKDNKNLISQKQINDDAQLKSAIDTIKILNIKQGEGHHHHHH | soluble
